This is an account of results in paper PMC9547791 (Acta Neuropathologica, 2022).

This test deals with T1, STI1 TPR2A domain (residues 217-352) (mouse, UniProt Q60864 217-352).
T1 construct: STI1, mouse, TPR2A domain, residues 217-352; The tag is TEV-cleavable
As to conditions: both partners purified.

T1 sequence (Q60864 217-352): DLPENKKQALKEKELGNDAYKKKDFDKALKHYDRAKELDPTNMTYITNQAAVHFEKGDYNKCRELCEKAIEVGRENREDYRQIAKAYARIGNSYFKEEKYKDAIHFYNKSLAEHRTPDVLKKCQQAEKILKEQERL

B1: Hsp90 pentapeptide (MEEVD), C-terminus of Hsp90 (peptide)
peptide: MEEVD
notes: pentapeptide motif of the C-terminus of Hsp90; also called Hsp90 peptide
Take B1: the binding result is reported as “binds”.
